Consider seven substances from patent US8883967B2, “Branched amphipathic oligo-peptides that self-assemble into vesicles” (Kansas State University Research Foundation, priority 2009, dated 2014).

Series [1] in a line: Sedimentation analysis (analytical ultracentrifugation), N-acetyl capped peptides. The class given is physicochemical. The settings on record: 1 mM, DDI water, pH 7, 40,000 rpm, 20° C. Here is the method: In this procedure, N-acetyl capped peptides were prepared using the protocol described in Example 1 above and subjected to analytical ultracentrifugation for sedimentation analysis. Three different samples were prepared from bis(h5)-K-K4 alone, bis(h9)-K-K4 alone, and a 1:1 molar ratio mixture of the two peptides, each with a final peptide concentration of 1 mM dissolved in DDI water and pH adjusted to 7 using a dilute solution of NaOH. For the analyses, 350 μL of each sample was loaded into a Beckman XL-I Analytical Ultracentrifuge cell and spun at 40,000 rpm for 3 hours at 20° C., with data collected using interference optics. The raw data was then processed using DCDT+2.2.1 software to obtain g(s*) distribution. Theoretical distribution (sum of individual peptide distribution) was obtained using OriginLab v. 7.0 software.

For series [2] the following is noted: linear peptides, low and neutral pH; cited from earlier work.
The test system of series [3] is Human Lens Epithelial (HLE) cells. Description: Uptake of 5,6-carboxyfluorescein-loaded peptide vesicles by cells, fluorescence microscopy. It is filed as cell-based. The settings on record: 12 hours of incubation, 37° C. The method, then: Human Lens Epithelial (HLE) cells were obtained from Dr. Dolores Takemoto's lab (Kansas State University). These adherent cells were grown to roughly 80% confluence on coverslips placed in 12 well plates with 1 ml Dulbecco's Modified Eagle Medium (DMEM), Stock solutions of bis(h9)-K-K4 and bis(h5)-K-K4 dissolved in DDI water were mixed together using the protocol described in Example 4 to achieve a final concentration of 0.025 mM of each peptide in the mixture and 600 μL final volume. The sample was then dried by spinning in a speed vacuum for about 3 hours until almost all of the solvent was removed. The dried sample was then rehydrated with a 0.5 mM solution of the fluorescent dye 5,6-carboxyfluorescein (MW=376.3 Da) dissolved in DDI water. The pH of the sample was adjusted to 7.4 using a dilute solution of NaOH. Next, 500 μL of the DMEM was replaced with the peptide vesicle solution loaded with 5,6-carboxyfluorescein. The cells were then allowed to grow at 37° C. under 5% CO2. At 4 hours and 12 hours after incubation with dye-loaded vesicles, the cells were washed twice with phosphate buffered saline (PBS) and fixed using 0.4% paraformaldehyde. The fixed cells were then mounted on a glass slide and pictures were taken using a fluorescence microscope. […]

Series [4] in a line: Confocal microscopy of vesicles in 5,6-carboxyfluorescein solution. The class given is physicochemical. To be noted: single peptide alone. The method, then:
About 25 μL of the sample was then mounted on a glass slide and covered with a coverslip and sealed. The slides were allowed to sit for 48-72 hours before pictures were taken using a confocal microscope. Upon sitting in the unbuffered 5,6-carboxyfluorescein solution for 48 hours, larger spherical entities than observed with TEM are formed, which can be seen with the light microscope. Specifically, in FIG. 7, peptides bis(h5)-K-K4 and bis(h9)-K-K4 at a 1:1 molar ratio when added to DDI water form larger vesicles on the order of 2-10 μm in diameter. […] The vesicles in this figure are large enough to have fluorescently-labeled peptide aggregates trapped within the vesicles.

No end group written: not given here.

For “N-acetyl capped bis(h9)-K-K4: bis(h9)-K-K4 with the N-termini of both hydrophobic tails capped with an acetyl group (chain 1 Ac-FLIVIGSIIKKKKK-NH2; chain 2 Ac-FLIVIGSII; also: branched: chain 2 tail attached to branch lysine K10 of chain 1, linkage amine not given here)”, the “apparent S value” in series [1] is ~10 S.

Consider “KKKFLIVIGSIIKKK [Linear … flanked by three lysine groups, from earlier studies (US 2009/0105449)]”, for which the vesicle formation result in series [2] is given as “do not form vesicles”.

Turning to “5,6-carboxyfluorescein [free fluorescent dye]”, the “cellular uptake of dye” value in series [3] is given as “hardly any uptake of the dye”.

On to “KKKFLIVIKKK [Linear FLIVI flanked by three lysine groups, from earlier studies (US 2009/0105449)]”, for which, in series [2], the vesicle formation result is “do not form vesicles”.

For the substance “bis(h5)-K-K4: Branched amphipathic peptide: two FLIVI (SEQ ID NO: 4) tails on a branch lysine, KKKK C-terminal carboxyamide”, the “ability of the peptide by itself to form vesicle structures” value in series [4] is reported as “unable to form these structures”.

As to “N-acetyl capped bis(h5)-K-K4: bis(h5)-K-K4 with the N-termini of both hydrophobic tails capped with an acetyl group (chain 1 Ac-FLIVIKKKKK-NH2; chain 2 Ac-FLIVI; also: branched: chain 2 tail attached to branch lysine K6 of chain 1, linkage amine not given here)”, the “apparent S value” in series [1] was “around 6 S”.

With “bis(h9)-K-K4: Branched amphipathic peptide: two FLIVIGSII (SEQ ID NO: 3) tails on a branch lysine, KKKK C-terminal carboxyamide”, in series [4], the “ability of the peptide by itself to form vesicle structures” value is given as “able to form these vesicle-like structures”; the “stability of vesicle-like structures formed by the peptide alone” value is “somewhat unstable and rapidly fuse to produce the larger structures”.
